Laboratory results as given in publication PMC12280157.

Tests used:
[1] = molecular target: APLNR(F233)-cpGFP (human) (UniProt P35414)
[2] = molecular target: APLNR(K235)-cpGFP (human) (UniProt P35414)
[3] = molecular target: APLNR(K235)-cpGFP expressed in zebrafish embryos (human) (UniProt P35414)
[4] = molecular target: APLNR(K235)-cpGFP expressed in zebrafish embryos (human) (UniProt P35414); remark: listed apart in the source
[5] = molecular target: APLNR(K235)-cpGFP expressed in zebrafish embryos (human) (UniProt P35414); remark: listed apart in the source

Binder: QRRCMPLHSRVPFP [Apela(19-32)]
- EC50 of the increase of cpGFP fluorescence (conformational change of the biosensor), stable HEK293T cells, 37 °C [1]: 7 nM
- EC50 of the increase of cpGFP fluorescence (conformational change of the biosensor), stable HEK293T cells, 37 °C [2]: 8 nM

Binder: DKHGTKHDFLNLRRKYRRHNCPKKRCLPLHSRVPFP (ligand) [zebrafish Apela]
- cpGFP fluorescence intensity of the biosensor in zebrafish embryos at 6 hpf, after heat shock-induced ubiquitous apela overexpression, against wildtype siblings [3]: 27 % increase

B1: zebrafish Apelin (ligand)
chain: GPMASTEHSKEIEEVGSMRTPLRQNPARAGRSQRPAGWRRRRPRPRLSHKGPMPF
- cpGFP fluorescence intensity of the biosensor in zebrafish embryos at 6 hpf, after heat shock-induced ubiquitous apln overexpression, against wildtype siblings [3]: 27 % increase
- cpGFP fluorescence intensity of the biosensor in intersegmental vessels of zebrafish embryos at 28 hpf, after heat shock-induced apln overexpression, against control siblings [4]: 250 % increase
- cpGFP fluorescence intensity of single cells at 1 to 5 cell distances from an apln-expressing cell, zebrafish embryos at 6 hpf; reduction against distance 1 [5]: 23 % reduction
